The text below walks through data of US20180201654A1 (UNIVERSITY OF SOUTHERN CALIFORNIA, published 2018).

The target of assay [1] is T1, HAUSP (Herpes virus-associated ubiquitin-specific protease), full length (human, UniProt Q93009 1-1102).
T1 construct: also called USP7; Flag-HAUSP
Description: co-immunoprecipitation from transfected 293T cells, IP: V5, IB: Flag.

In assay [2] the target is T1, HAUSP (Herpes virus-associated …). Description: GST pulldown from transfected cells, immunoblot with anti-HAUSP antibody.
Assay [3] has the same target. Put plainly: co-immunoprecipitation from transfected 293T cells, IP: V5, IB: Flag. The source holds these as a separate data set.
The target of assay [4] is T2, HAUSP TRAF domain (HAUSP^62-205) (human, UniProt Q93009 62-205).
T2 construct: also called TRAF-like domain of HAUSP
T2 sequence (Q93009 62-205): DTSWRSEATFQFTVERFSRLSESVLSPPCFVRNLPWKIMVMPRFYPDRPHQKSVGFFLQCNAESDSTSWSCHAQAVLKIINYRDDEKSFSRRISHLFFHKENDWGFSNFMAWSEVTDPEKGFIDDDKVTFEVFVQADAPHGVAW
Put plainly: ITC, titration against the HAUSP TRAF domain, 20 C. (ITC needs no label: the signal is the heat of the interaction.)

Assay [5] has as its target T1, HAUSP (Herpes virus-associated …). Put plainly: GST pulldown from transfected 293T cells, IB: Flag.

T1 sequence (Q93009 whole entry): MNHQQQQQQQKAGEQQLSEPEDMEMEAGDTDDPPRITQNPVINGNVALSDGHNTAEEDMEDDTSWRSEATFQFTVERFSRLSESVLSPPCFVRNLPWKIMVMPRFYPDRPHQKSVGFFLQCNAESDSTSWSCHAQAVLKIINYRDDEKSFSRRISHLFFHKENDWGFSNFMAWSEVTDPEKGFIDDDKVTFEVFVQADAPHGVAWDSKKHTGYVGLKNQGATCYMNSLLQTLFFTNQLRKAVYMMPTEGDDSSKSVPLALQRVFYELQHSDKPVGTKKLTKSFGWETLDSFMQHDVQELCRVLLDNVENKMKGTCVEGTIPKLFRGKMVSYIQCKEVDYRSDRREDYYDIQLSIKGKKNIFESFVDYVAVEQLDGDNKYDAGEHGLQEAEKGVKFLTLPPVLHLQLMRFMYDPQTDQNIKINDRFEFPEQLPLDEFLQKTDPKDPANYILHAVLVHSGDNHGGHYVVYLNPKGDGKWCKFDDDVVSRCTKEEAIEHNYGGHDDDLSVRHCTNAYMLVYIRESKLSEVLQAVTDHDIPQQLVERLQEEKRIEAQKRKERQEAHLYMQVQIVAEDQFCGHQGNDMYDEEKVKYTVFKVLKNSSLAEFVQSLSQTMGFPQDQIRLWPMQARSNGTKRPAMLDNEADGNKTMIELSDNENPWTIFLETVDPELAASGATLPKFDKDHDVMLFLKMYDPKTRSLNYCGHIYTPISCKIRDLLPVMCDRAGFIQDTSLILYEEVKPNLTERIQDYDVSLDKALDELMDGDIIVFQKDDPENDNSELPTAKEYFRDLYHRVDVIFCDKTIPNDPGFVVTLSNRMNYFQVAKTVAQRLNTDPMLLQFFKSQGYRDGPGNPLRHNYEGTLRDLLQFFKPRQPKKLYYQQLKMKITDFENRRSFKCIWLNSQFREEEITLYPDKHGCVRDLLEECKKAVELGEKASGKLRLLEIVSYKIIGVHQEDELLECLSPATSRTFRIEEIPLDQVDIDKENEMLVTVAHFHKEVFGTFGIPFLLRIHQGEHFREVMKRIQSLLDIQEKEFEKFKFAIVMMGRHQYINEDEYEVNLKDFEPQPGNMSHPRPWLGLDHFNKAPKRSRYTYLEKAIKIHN

B1: V5/vIRF4 1-454 (other)
single chain: MPKAGGSEWATLWIIDALENNKFPYFSWFDRNNLLFAAPAPLPAGSDIPPGWYSVYHAFDEECDRVYGPSPVVGQTVYGRFGRLLRGTRRAVVRNDLRYSDTFGGSYVVWQLVRTPFKNCTYCYGAAYGPEKLQRFIQCLLSPPMQTTATRRSDTREQSYEEAGAAAPAPPKAPSGLRGRPRKSNRYYNVGDITTEQKAACSVWIPVNEGASTSGMGSSGTRQVTQASSFTWRVPGDPPAPSTLTGPSDPHSSGAGLPGTAPPKPQHETRLAGTVSGVSGVAQTPGDTGQLAPPMRDGSRLPSTSPWIPACFPWGDLPVTGWWPQGASGLPEKVHPPTTGQFDPLSPRWTYTGIPSSQLNPAAPSWIPPHAQAGTFVGEFSQGAPLAPQGLLPQSGQCASAWLPRRETGAEGACGASTEGRAPQGAASERVYPFEPQPPSAPAPGYAKPSCYNW
As to B1, in assay [1], the binding result is reported as “binds”.

B2: GST-vIRF4^202-256 (other)
chain: SVWIPVNEGASTSGMGSSGTRQVTQASSFTWRVPGDPPAPSTLTGPSDPHSSGAG
notes: not shown: GST tag of the pEBG-GST vector
B2: the binding result in assay [2] is on record as “binds”.

B3: V5/vIRF4 1-605 (other)
single chain: MPKAGGSEWATLWIIDALENNKFPYFSWFDRNNLLFAAPAPLPAGSDIPPGWYSVYHAFDEECDRVYGPSPVVGQTVYGRFGRLLRGTRRAVVRNDLRYSDTFGGSYVVWQLVRTPFKNCTYCYGAAYGPEKLQRFIQCLLSPPMQTTATRRSDTREQSYEEAGAAAPAPPKAPSGLRGRPRKSNRYYNVGDITTEQKAACSVWIPVNEGASTSGMGSSGTRQVTQASSFTWRVPGDPPAPSTLTGPSDPHSSGAGLPGTAPPKPQHETRLAGTVSGVSGVAQTPGDTGQLAPPMRDGSRLPSTSPWIPACFPWGDLPVTGWWPQGASGLPEKVHPPTTGQFDPLSPRWTYTGIPSSQLNPAAPSWIPPHAQAGTFVGEFSQGAPLAPQGLLPQSGQCASAWLPRRETGAEGACGASTEGRAPQGAASERVYPFEPQPPSAPAPGYAKPSCYNWSPLAEPPATRPIRAPVWHPPVGHAVVPEVRTPLWIPWSSGGAPNQGLSHTQGGASATPSAGAPPTPEVAERQEPSSSGIPYVCQGDNMATGYRRVTTSSGALEVEIIDLTGDSDTPSTTVASTPLPVSGPRVFQPTVLYSAPEPAVNPEVS
With B3, in assay [1], the binding result is recorded as “binds”.

B4: V5/vIRF4 1-305 (other)
single chain: MPKAGGSEWATLWIIDALENNKFPYFSWFDRNNLLFAAPAPLPAGSDIPPGWYSVYHAFDEECDRVYGPSPVVGQTVYGRFGRLLRGTRRAVVRNDLRYSDTFGGSYVVWQLVRTPFKNCTYCYGAAYGPEKLQRFIQCLLSPPMQTTATRRSDTREQSYEEAGAAAPAPPKAPSGLRGRPRKSNRYYNVGDITTEQKAACSVWIPVNEGASTSGMGSSGTRQVTQASSFTWRVPGDPPAPSTLTGPSDPHSSGAGLPGTAPPKPQHETRLAGTVSGVSGVAQTPGDTGQLAPPMRDGSRLPSTS
On to B4, for which, in assay [1], the binding result was “binds”.

B5: vIRF4 (Kaposi's-sarcoma-associated-herpesvirus vIRF4), full length wild type (other)
chain: MPKAGGSEWATLWIIDALENNKFPYFSWFDRNNLLFAAPAPLPAGSDIPPGWYSVYHAFDEECDRVYGPSPVVGQTVYGRFGRLLRGTRRAVVRNDLRYSDTFGGSYVVWQLVRTPFKNCTYCYGAAYGPEKLQRFIQCLLSPPMQTTATRRSDTREQSYEEAGAAAPAPPKAPSGLRGRPRKSNRYYNVGDITTEQKAACSVWIPVNEGASTSGMGSSGTRQVTQASSFTWRVPGDPPAPSTLTGPSDPHSSGAGLPGTAPPKPQHETRLAGTVSGVSGVAQTPGDTGQLAPPMRDGSRLPSTSPWIPACFPWGDLPVTGWWPQGASGLPEKVHPPTTGQFDPLSPRWTYTGIPSSQLNPAAPSWIPPHAQAGTFVGEFSQGAPLAPQGLLPQSGQCASAWLPRRETGAEGACGASTEGRAPQGAASERVYPFEPQPPSAPAPGYAKPSCYNWSPLAEPPATRPIRAPVWHPPVGHAVVPEVRTPLWIPWSSGGAPNQGLSHTQGGASATPSAGAPPTPEVAERQEPSSSGIPYVCQGDNMATGYRRVTTSSGALEVEIIDLTGDSDTPSTTVASTPLPVSGPRVFQPTVLYSAPEPAVNPEVSHLPTELERRECVCPGSGERPRVPLVSTYAGDRYAVGGYGPEQSLVPPPLGLPLTLSNLQGEDICTWEEGLGNILSELQEEPSSSTRQATDRRRPRSRSPHGRRTPVSHSGPEKPPSKMFFDPPDSQRVSFVVEIFVYGNLRGTLRREGDAGEAMLCSWPVGDTLGHLCQSFVPELLRIPRLTVPSPEQMEILNRVFEGLGHGFPIFCSMSGIYSRNATQVEGWWFGNPNSRYERILRSFSPRVPQQLFNTARYLATTAAIPQTPLSVNPVTCGTVFFGASPASTENFQNVPLTVKIFIGSIWDSLH
Turning to B5, the binding result in assay [3] is “binds”.

B6: V5/vIRF4 1-758 (other)
single chain: MPKAGGSEWATLWIIDALENNKFPYFSWFDRNNLLFAAPAPLPAGSDIPPGWYSVYHAFDEECDRVYGPSPVVGQTVYGRFGRLLRGTRRAVVRNDLRYSDTFGGSYVVWQLVRTPFKNCTYCYGAAYGPEKLQRFIQCLLSPPMQTTATRRSDTREQSYEEAGAAAPAPPKAPSGLRGRPRKSNRYYNVGDITTEQKAACSVWIPVNEGASTSGMGSSGTRQVTQASSFTWRVPGDPPAPSTLTGPSDPHSSGAGLPGTAPPKPQHETRLAGTVSGVSGVAQTPGDTGQLAPPMRDGSRLPSTSPWIPACFPWGDLPVTGWWPQGASGLPEKVHPPTTGQFDPLSPRWTYTGIPSSQLNPAAPSWIPPHAQAGTFVGEFSQGAPLAPQGLLPQSGQCASAWLPRRETGAEGACGASTEGRAPQGAASERVYPFEPQPPSAPAPGYAKPSCYNWSPLAEPPATRPIRAPVWHPPVGHAVVPEVRTPLWIPWSSGGAPNQGLSHTQGGASATPSAGAPPTPEVAERQEPSSSGIPYVCQGDNMATGYRRVTTSSGALEVEIIDLTGDSDTPSTTVASTPLPVSGPRVFQPTVLYSAPEPAVNPEVSHLPTELERRECVCPGSGERPRVPLVSTYAGDRYAVGGYGPEQSLVPPPLGLPLTLSNLQGEDICTWEEGLGNILSELQEEPSSSTRQATDRRRPRSRSPHGRRTPVSHSGPEKPPSKMFFDPPDSQRVSFVVEIFVYGNLRGTLRREGDAGEA
On to B6, for which, in assay [1], the binding result was “binds”.

B7: GST-vIRF4^220-236 (other)
chain: GTRQVTQASSFTWRVPG
notes: as for B2
Turning to B7, the binding result in assay [2] is on record as “binds”.

B8: vIRF4^153-216 (other)
chain: SDTREQSYEEAGAAAPAPPKAPSGLRGRPRKSNRYYNVGDITTEQKAACSVWIPVNEGASTSGM
Consider B8, for which, in assay [4], the Ka came to 1.84e+06 M⁻¹; the affinity, expressed as Kd, was 540 nM; the TΔS was -7.35 kcal/mol; the n is 0.82. In assay [4], this molecule yielded a ΔG of -8.41 kcal/mol and a ΔH of -15.8 kcal/mol.

B9: GST-vIRF4 153-305 (other)
single chain: SDTREQSYEEAGAAAPAPPKAPSGLRGRPRKSNRYYNVGDITTEQKAACSVWIPVNEGASTSGMGSSGTRQVTQASSFTWRVPGDPPAPSTLTGPSDPHSSGAGLPGTAPPKPQHETRLAGTVSGVSGVAQTPGDTGQLAPPMRDGSRLPSTS
On to B9, for which, in assay [5], the binding result is “binds”.

B10: GST-vIRF4 1-153 (other)
single chain: MPKAGGSEWATLWIIDALENNKFPYFSWFDRNNLLFAAPAPLPAGSDIPPGWYSVYHAFDEECDRVYGPSPVVGQTVYGRFGRLLRGTRRAVVRNDLRYSDTFGGSYVVWQLVRTPFKNCTYCYGAAYGPEKLQRFIQCLLSPPMQTTATRRS
With B10, the binding result in assay [5] was “no binding”.
